Experimental data reported in paper PMC3609069 (Prion, 2012).

Biological target: the molecule itself
Assay: […], pH 6.6

B1: Nup100f-Trp-7xHis (WT) (domain or fragment)
chain: GVFGQNNNQMQINGNNNNSLFGKANTFSNSASGGLFGQNNQQQGSGLFGQNSQTSGSSGLFGQNNQKQPNTFTQSNTGIGLFGQNNNQQQQSTGLFGAKPA
- binding result: binds
